Results taken from patent US20110150894A1.

Biological target: activated β1 integrin on bovine capillary endothelial (CE) cells (bovine) (UniProt P53712)
Experiment: cell-based or functional assay

Chain of activated β1 integrin on bovine capillary endothelial (CE) cells (bovine) (P53712 21-798): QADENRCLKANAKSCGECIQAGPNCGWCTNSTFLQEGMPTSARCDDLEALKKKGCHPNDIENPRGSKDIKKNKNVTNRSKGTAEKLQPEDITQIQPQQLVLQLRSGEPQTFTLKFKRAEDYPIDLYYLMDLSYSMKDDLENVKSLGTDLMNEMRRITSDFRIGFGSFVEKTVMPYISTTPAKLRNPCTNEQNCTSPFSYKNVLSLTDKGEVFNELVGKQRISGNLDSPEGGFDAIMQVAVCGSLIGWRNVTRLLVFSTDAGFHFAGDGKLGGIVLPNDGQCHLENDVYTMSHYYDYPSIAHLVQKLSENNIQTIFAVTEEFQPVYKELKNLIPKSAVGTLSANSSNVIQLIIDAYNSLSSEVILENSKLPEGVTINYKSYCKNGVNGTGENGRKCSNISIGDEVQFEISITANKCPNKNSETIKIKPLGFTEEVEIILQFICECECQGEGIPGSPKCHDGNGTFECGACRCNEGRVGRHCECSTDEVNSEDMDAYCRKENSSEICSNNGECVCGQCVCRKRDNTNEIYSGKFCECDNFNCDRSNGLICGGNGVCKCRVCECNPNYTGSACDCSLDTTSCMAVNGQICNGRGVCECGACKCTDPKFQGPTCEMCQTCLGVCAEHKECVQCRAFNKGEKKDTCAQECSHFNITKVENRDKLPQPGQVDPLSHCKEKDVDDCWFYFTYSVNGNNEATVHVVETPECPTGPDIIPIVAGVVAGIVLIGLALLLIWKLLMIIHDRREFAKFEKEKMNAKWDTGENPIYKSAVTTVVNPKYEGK

decrease in strain-induced cell realignment: 70%
Substance: function-blocking anti-β1 integrin (P5D2) antibody
